# From publication doi:10.1101/2021.05.31.446396 (bioRxiv, 2021)
# Target: the molecule itself
# Experiment: SEC
row,Protein,stoichiometry N
1,"D3 domain of EccCb1 (349-580 residues), wild type (domain or fragment) EIPIGLRETDLTPAHCHMHTNPHLLIFGAAKSGKTTIAHAIARAICARNSPQQVRFMLADYRSGLLDAVPDTHLLGAGAINRNSASLDEAVQALAVNLKKRLPPTDLTTAQLRSRSWWSGFDVVLLVDDWHMIVGAAGGMPPMAPLAPLLPAAADIGLHIIVTCQMSQAYKATMDKFVGAAFGSGAPTMFLSGEKQEFPSSEFKVKRRPPGQAFLVSPDGKEVIQAPYIEPP",2
2,"D2 domain of EccCb1 (35-316 residues), wild type (domain or fragment) NPVPLNELIARDRRQPLRFALGIMDEPRRHLQDVWGVDVSGAGGNIGIGGAPQTGKSTLLQTMVMSAAATHSPRNVQFYCIDLGGGGLIYLENLPHVGGVANRSEPDKVNRVVAEMQAVMRQRETTFKEHRVGSIGMYRQLRDDPSQPVASDPYGDVFLIIDGWPGFVGEFPDLEGQVQDLAAQGLAFGVHVIISTPRWTELKSRVRDYLGTKIEFRLGDVNETQIDRITREIPANRPGRAVSMEKHHLMIGVPRFDGVHSADNLVEAITAGVTQIASQHTE",2
3,"D2 domain of EccCb1 (35-316 residues), T92A mutant (domain or fragment) NPVPLNELIARDRRQPLRFALGIMDEPRRHLQDVWGVDVSGAGGNIGIGGAPQTGKSALLQTMVMSAAATHSPRNVQFYCIDLGGGGLIYLENLPHVGGVANRSEPDKVNRVVAEMQAVMRQRETTFKEHRVGSIGMYRQLRDDPSQPVASDPYGDVFLIIDGWPGFVGEFPDLEGQVQDLAAQGLAFGVHVIISTPRWTELKSRVRDYLGTKIEFRLGDVNETQIDRITREIPANRPGRAVSMEKHHLMIGVPRFDGVHSADNLVEAITAGVTQIASQHTE",2
4,"D2 domain of EccCb1 (35-316 residues), Q87A mutant (domain or fragment) NPVPLNELIARDRRQPLRFALGIMDEPRRHLQDVWGVDVSGAGGNIGIGGAPATGKSTLLQTMVMSAAATHSPRNVQFYCIDLGGGGLIYLENLPHVGGVANRSEPDKVNRVVAEMQAVMRQRETTFKEHRVGSIGMYRQLRDDPSQPVASDPYGDVFLIIDGWPGFVGEFPDLEGQVQDLAAQGLAFGVHVIISTPRWTELKSRVRDYLGTKIEFRLGDVNETQIDRITREIPANRPGRAVSMEKHHLMIGVPRFDGVHSADNLVEAITAGVTQIASQHTE",2
5,"D2 domain of EccCb1 (35-316 residues), K90A mutant (domain or fragment) NPVPLNELIARDRRQPLRFALGIMDEPRRHLQDVWGVDVSGAGGNIGIGGAPQTGASTLLQTMVMSAAATHSPRNVQFYCIDLGGGGLIYLENLPHVGGVANRSEPDKVNRVVAEMQAVMRQRETTFKEHRVGSIGMYRQLRDDPSQPVASDPYGDVFLIIDGWPGFVGEFPDLEGQVQDLAAQGLAFGVHVIISTPRWTELKSRVRDYLGTKIEFRLGDVNETQIDRITREIPANRPGRAVSMEKHHLMIGVPRFDGVHSADNLVEAITAGVTQIASQHTE",2
6,"D2 domain of EccCb1 (35-316 residues), S91A mutant (domain or fragment) NPVPLNELIARDRRQPLRFALGIMDEPRRHLQDVWGVDVSGAGGNIGIGGAPQTGKATLLQTMVMSAAATHSPRNVQFYCIDLGGGGLIYLENLPHVGGVANRSEPDKVNRVVAEMQAVMRQRETTFKEHRVGSIGMYRQLRDDPSQPVASDPYGDVFLIIDGWPGFVGEFPDLEGQVQDLAAQGLAFGVHVIISTPRWTELKSRVRDYLGTKIEFRLGDVNETQIDRITREIPANRPGRAVSMEKHHLMIGVPRFDGVHSADNLVEAITAGVTQIASQHTE",2
